PMC11883000 (2025)
Read-outs that look alike come from different tables or passages of the source. Ends that are not written are not given here. Me2 = dimethylation (dimethyl-lysine); Me3 = trimethyl on lysine side chain

Experiments:
[1] = target: T1, ASH1L plant homeodomain (PHD) finger, wild type (aa 2579-2629) (human, UniProt Q9NR48 2579-2629); experiment: MST
T1 chain: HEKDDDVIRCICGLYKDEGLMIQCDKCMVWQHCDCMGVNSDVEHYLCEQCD

[2] = target: T2, ASH1L PHD finger-BAH domain (human, UniProt Q9NR48 2579-2834)
T2 chain: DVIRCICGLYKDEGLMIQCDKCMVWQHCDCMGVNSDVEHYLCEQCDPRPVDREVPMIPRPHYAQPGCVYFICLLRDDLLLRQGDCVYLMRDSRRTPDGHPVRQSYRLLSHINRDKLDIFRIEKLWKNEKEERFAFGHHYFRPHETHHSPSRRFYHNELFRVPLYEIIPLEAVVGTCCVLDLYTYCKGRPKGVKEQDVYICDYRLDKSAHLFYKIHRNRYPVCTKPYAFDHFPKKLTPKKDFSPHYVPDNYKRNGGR

ASH1L PHD finger D2595A = ASH1L PHD finger D2595A (human, UniProt Q9NR48 2579-2629, Substitution of D2595 with alanine)
ASH1L PHD finger S2618A = ASH1L PHD finger S2618A (human, UniProt Q9NR48 2579-2629, S2618A)
[3] = target: T1, ASH1L plant homeodomain (PHD) finger, …
ASH1L PHD finger Q2601K = ASH1L PHD finger Q2601K (human, UniProt Q9NR48 2579-2629, Q2601K)
ASH1L PHD finger D2584A = ASH1L PHD finger D2584A (human, UniProt Q9NR48 2579-2629, Substitution of D2584 with alanine)
ASH1L PHD finger D2603A = ASH1L PHD finger D2603A (human, UniProt Q9NR48 2579-2629, D2603A)
ASH1L PHD finger Y2693K = target: T3, ASH1L PHD finger Y2693K (human, UniProt Q9NR48 2579-2629)
T3 chain: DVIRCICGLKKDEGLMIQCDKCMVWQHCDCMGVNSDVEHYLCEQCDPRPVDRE

For ARTK(Me3)QTARKSTG [histone H3K4me3 peptide (aa 1-12 of H3)], the Kd [1] was 1100 nM, the Kd [2] was 1000 nM and the Kd (ASH1L PHD finger D2595A) was 6.7 µM. It also gave a Kd (ASH1L PHD finger S2618A) of 5.9 µM, a Kd [3] of 1600 nM and a Kd (ASH1L PHD finger Q2601K) of 1000 nM. The Kd (ASH1L PHD finger D2584A) was 4.6 µM, the Kd (ASH1L PHD finger D2603A) was 2000 nM and the Kd (ASH1L PHD finger Y2693K) was 1800 nM.

ARTK(Me2)QTARKSTG [histone H3K4me2 peptide (aa 1-12 of H3)] showed a Kd [3] of 1000 nM.
